Data as given in patent US20040018957A1, “Crystal structure of a Ras-P13K complex” (priority 2000, published 2004).

Tests used:
[1] = target: T1, PI3K (Homo sapiens, UniProt P48736); assay: Steady state and kinetic measurements of mant-ATP and mant-ADP binding; settings: FIG. 2C
T1 construct: a construct containing residues 144-1102 of the human PI3Kγ with a C-terminal His6 tag; His6 (C); made in house; host or cells: Sf9 insect cells (baculovirus, pVL1393)
Method: Equilibrium binding of mant-ATP to PI3K was measured in a SLM 8000 S spectrofluorimeter with λex=280 nm and […]. This allowed monitoring of energy transfer from tryptophan in the PI3K to mant-ATP. Mant-ATP was titrated into a 1 μM solution of PI3K in running buffer. Each data point represents the average of data collected for 30 seconds with a 1 second integration time. For data collected in the presence of Ras, the solution also contained 6 μM H-ras.GMPPNP. The data were fitted to the binding equation with Kaleidagraph.
All kinetic data were collected in a Hi-Tech Na61 instrument set up in the single push mode with λex=280 nm and emission monitored with 399 nm cutoff filters. A solution of PI3K was mixed a solution of mant-ATP such that the final PI3K concentration was 1 μM and the ATP concentrations were 2.5, 5. 7.5, 10, 12.5, and 25 μM. The displacement experiment was carried out by mixing 1 μM PI3K and 2 μM mant-ATP with 50 or 200 μM ATP. Curve fits were carried out with the Hi-Tech software and Kaleidagraph. Equilibrium and kinetic data for mant-ADP were collected by the same methods.

[2] = target: T2, N-Ras.mant-GMPPNP (Homo sapiens, UniProt P01111); assay: Fluorescence anisotropy titration of PI3Kγ 144-1102 into N-Ras.mant-GMPPNP; format: binding; settings: fluorescence anisotropy, 20° C., 1 μM N-Ras.mant-GMPPNP
T2 construct: fluorescence anisotropy of full length, unmodified N-Ras.mant-GMPPNP
Method: (§1) Mant-nucleotides were synthesised as described previously (Jameson and Eccleston, 1997). N-Ras and H-Ras mutants were loaded with mant-GMPPNP as in (Moore et al., 1993), gel filtered into running buffer (20 mM Tris pH 7.5, 2 mM MgCl2, 1 mM DTT), and frozen at −80° C. The concentration of Ras.mant-GMPPNP was determined by measuring the absorbance of the mant group at […] with ε=5700 M^−1 cm^−1 (Hiratsuka, 1983). For binding assays, the 144-1102 human PI3Kγ was titrated into a 1 μM solution of fill length, unmodified N-Ras.mant-GMPPNP. Data were collected with SLM 8000 S and ISS PC1 spectrofluorimeters, set up in the T-format and L-format, respectively, with prism polarizers. All measurements were taken at 20° C. with a λex of 366 nm. Both emission PMTs were fitted with 399 nm cutoff filters. Five measurements of each data point were obtained and averaged. Data were fitted to the binding equation.
Target sequence in this assay (P01111 whole entry): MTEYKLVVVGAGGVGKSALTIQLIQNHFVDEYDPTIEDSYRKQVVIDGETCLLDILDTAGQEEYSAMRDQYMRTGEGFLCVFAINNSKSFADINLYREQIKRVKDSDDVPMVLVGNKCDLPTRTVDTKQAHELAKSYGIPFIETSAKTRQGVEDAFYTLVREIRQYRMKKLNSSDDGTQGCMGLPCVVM

[3] = target: wild type H-Ras (Homo sapiens, UniProt P01112); assay: Fluorescence anisotropy titration of PI3Kγ with H-Ras; format: binding
Method: as §1

[4] = target: T2, N-Ras.mant-GMPPNP; assay: Stopped flow anisotropy, association and dissociation kinetics; format: binding; settings: 20° C.
Method: A Hi-Tech MX61 instrument (Hi-Tech, Salisbury) set up in the T-format with prism polarizers was used to collect data at 20° C. The mant group was excited at 366 nm and emission monitored through 399 nm cutoff filters. The association kinetics were followed by rapid mixing of PI3Kγ with 1 μM N-Ras.mant-GMPPNP under pseudo first-order conditions (PI3Kγ in large excess). Specifically, equal proportions of N-Ras and PI3Kγ were mixed to a final Ras concentration of 1 μM and final PI3Kγ concentrations of 5 and 10 μM. The dissociation rate was measured by mixing a solution of 1 μM N-Ras.mant-GMPPNP and 5 μM PI3K with 9 μM N-Ras.GMPPNP. Attempts to determine association rates at higher PI3K concentrations were limited by solubility of the protein. Data were fitted to single exponential curves within the Hi-Tech software.
Target sequence in this assay (P01111 whole entry): as above
Target sequence in this assay (P48736 144-1102 partner limits assumed): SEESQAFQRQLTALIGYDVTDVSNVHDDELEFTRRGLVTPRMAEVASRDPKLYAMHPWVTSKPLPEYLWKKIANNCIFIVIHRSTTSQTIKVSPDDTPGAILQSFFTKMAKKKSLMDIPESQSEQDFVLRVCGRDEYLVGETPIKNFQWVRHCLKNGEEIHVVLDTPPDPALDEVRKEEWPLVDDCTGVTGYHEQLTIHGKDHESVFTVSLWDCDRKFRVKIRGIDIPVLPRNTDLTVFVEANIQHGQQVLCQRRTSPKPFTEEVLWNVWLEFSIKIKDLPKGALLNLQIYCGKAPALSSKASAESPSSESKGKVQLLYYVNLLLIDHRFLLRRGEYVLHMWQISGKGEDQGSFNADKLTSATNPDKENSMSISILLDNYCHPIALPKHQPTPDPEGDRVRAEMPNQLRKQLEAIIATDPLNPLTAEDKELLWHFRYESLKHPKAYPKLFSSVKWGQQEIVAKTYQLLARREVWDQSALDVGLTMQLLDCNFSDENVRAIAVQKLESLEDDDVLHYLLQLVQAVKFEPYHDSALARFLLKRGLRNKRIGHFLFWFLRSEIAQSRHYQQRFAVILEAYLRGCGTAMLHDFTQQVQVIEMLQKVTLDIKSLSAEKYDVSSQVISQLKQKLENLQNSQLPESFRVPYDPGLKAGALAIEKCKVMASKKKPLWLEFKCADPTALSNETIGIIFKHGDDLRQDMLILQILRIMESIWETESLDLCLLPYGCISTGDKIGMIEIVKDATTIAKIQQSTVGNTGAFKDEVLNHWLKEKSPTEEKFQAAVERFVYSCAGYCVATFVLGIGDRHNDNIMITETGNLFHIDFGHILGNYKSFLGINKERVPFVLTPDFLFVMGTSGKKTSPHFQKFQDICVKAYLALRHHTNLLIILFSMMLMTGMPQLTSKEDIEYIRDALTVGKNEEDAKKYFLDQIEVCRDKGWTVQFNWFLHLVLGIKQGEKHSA

[5] = target: N-Ras.GDP (Homo sapiens, UniProt P01111); assay: Binding of PI3Kγ constructs to N-Ras.GDP
Chain of N-Ras.GDP (P01111 whole entry): as the sequence (P01111 whole entry) above

Chain of wild type H-Ras (P01112 whole entry): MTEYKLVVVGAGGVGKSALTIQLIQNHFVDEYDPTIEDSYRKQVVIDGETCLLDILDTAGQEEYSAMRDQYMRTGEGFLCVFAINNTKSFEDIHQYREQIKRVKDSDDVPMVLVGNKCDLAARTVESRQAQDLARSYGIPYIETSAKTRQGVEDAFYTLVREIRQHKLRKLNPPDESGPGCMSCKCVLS
Chain of wild type H-Ras (P48736 144-1102 partner limits assumed): as the sequence (P48736 144-1102 partner limits assumed) above
T1 sequence (P48736 144-1102): as the sequence (P48736 144-1102 partner limits assumed) above

For mant-ADP, the “nucleotide release from PI3Kγ” value [1] was “slower than mant-ATP release”.

In the case of “wild type PI3Kγ: residues 144-1102 of human PI3Kγ with a C-terminal His6 tag”, the Kd [2] is reported as 2800 ± 400 nM, the Kd [3] is reported as 3200 ± 500 nM and the “observed rate constant of the Ras.PI3K complex (single-exponential fit)” value [4] is reported as 18 s⁻¹. For the same substance, the “binding to N-Ras.GDP” value [5] was “Neither the wild-type protein, the pseudo wild-type (V327A, see methods), nor the V223K mutant exhibit detectable binding”.
